Results reported in patent US20110118131A1 (published 2011).

T1: Ep-CAM (UniProt P16422 24-265, limits assumed)
T1 construct: Antigen of the Biacore analysis of ING-1 variants
T1 sequence (looked up): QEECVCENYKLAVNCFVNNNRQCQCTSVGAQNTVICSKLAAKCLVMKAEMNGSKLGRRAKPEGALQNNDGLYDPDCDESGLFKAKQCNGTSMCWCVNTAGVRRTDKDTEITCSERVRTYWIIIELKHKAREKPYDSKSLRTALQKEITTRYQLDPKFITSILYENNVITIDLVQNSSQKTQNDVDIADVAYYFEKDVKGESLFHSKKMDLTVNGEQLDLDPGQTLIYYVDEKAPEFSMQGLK

T2: Ep-CAM (UniProt P16422 24-265, limits assumed)
T2 construct: Amine coupled to a CM5 chip in the Biacore assays
T2 sequence (looked up): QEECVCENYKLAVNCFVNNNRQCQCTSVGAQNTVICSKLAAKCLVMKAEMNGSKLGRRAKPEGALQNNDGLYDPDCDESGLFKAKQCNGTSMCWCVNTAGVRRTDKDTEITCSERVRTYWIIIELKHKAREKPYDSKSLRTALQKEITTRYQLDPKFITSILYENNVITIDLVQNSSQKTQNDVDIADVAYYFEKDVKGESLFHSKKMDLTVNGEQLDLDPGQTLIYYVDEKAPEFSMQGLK

B1: ING-1 heavy chain Y32H (Fab, V domains shown)
VH: QIQLVQSGPELKKPGETVKISCKASGYTFTKHGMNWVKQAPGKGLKWMGWINTYTEEPTYGDDFKGRFAFSLETSASTANLQINNLKSEDTATYFCARFGSAVDYWGQGTSVTVSS
VL: DIVMTQAAFSNPVTLGTSGSISCRSSKSLLHSNGITYLYWYLQKPGQSPQLLIYQMSNLASGVPDRFSSSGSGTDFTLRISRVEAEDVGVYYCAQNLELPRTFGGGTKLEMKR
B2: ING-1 heavy chain W50Y (Fab, V domains shown)
VH: QIQLVQSGPELKKPGETVKISCKASGYTFTKYGMNWVKQAPGKGLKWMGYINTYTEEPTYGDDFKGRFAFSLETSASTANLQINNLKSEDTATYFCARFGSAVDYWGQGTSVTVSS
VL: DIVMTQAAFSNPVTLGTSGSISCRSSKSLLHSNGITYLYWYLQKPGQSPQLLIYQMSNLASGVPDRFSSSGSGTDFTLRISRVEAEDVGVYYCAQNLELPRTFGGGTKLEMKR
B3: ING-1 heavy chain Y105S (Fab, V domains shown)
VH: QIQLVQSGPELKKPGETVKISCKASGYTFTKYGMNWVKQAPGKGLKWMGWINTYTEEPTYGDDFKGRFAFSLETSASTANLQINNLKSEDTATYFCARFGSAVDSWGQGTSVTVSS
VL: DIVMTQAAFSNPVTLGTSGSISCRSSKSLLHSNGITYLYWYLQKPGQSPQLLIYQMSNLASGVPDRFSSSGSGTDFTLRISRVEAEDVGVYYCAQNLELPRTFGGGTKLEMKR
B4: ING-1 heavy chain W50N (Fab, V domains shown)
VH: QIQLVQSGPELKKPGETVKISCKASGYTFTKYGMNWVKQAPGKGLKWMGNINTYTEEPTYGDDFKGRFAFSLETSASTANLQINNLKSEDTATYFCARFGSAVDYWGQGTSVTVSS
VL: DIVMTQAAFSNPVTLGTSGSISCRSSKSLLHSNGITYLYWYLQKPGQSPQLLIYQMSNLASGVPDRFSSSGSGTDFTLRISRVEAEDVGVYYCAQNLELPRTFGGGTKLEMKR
B5: ING-1 heavy chain W50R (Fab, V domains shown)
VH: QIQLVQSGPELKKPGETVKISCKASGYTFTKYGMNWVKQAPGKGLKWMGRINTYTEEPTYGDDFKGRFAFSLETSASTANLQINNLKSEDTATYFCARFGSAVDYWGQGTSVTVSS
VL: DIVMTQAAFSNPVTLGTSGSISCRSSKSLLHSNGITYLYWYLQKPGQSPQLLIYQMSNLASGVPDRFSSSGSGTDFTLRISRVEAEDVGVYYCAQNLELPRTFGGGTKLEMKR
B6: ING-1 heavy chain Y105D (Fab, V domains shown)
VH: QIQLVQSGPELKKPGETVKISCKASGYTFTKYGMNWVKQAPGKGLKWMGWINTYTEEPTYGDDFKGRFAFSLETSASTANLQINNLKSEDTATYFCARFGSAVDDWGQGTSVTVSS
VL: DIVMTQAAFSNPVTLGTSGSISCRSSKSLLHSNGITYLYWYLQKPGQSPQLLIYQMSNLASGVPDRFSSSGSGTDFTLRISRVEAEDVGVYYCAQNLELPRTFGGGTKLEMKR
B7: ING-1 heavy chain Y32E (Fab, V domains shown)
VH: QIQLVQSGPELKKPGETVKISCKASGYTFTKEGMNWVKQAPGKGLKWMGWINTYTEEPTYGDDFKGRFAFSLETSASTANLQINNLKSEDTATYFCARFGSAVDYWGQGTSVTVSS
VL: DIVMTQAAFSNPVTLGTSGSISCRSSKSLLHSNGITYLYWYLQKPGQSPQLLIYQMSNLASGVPDRFSSSGSGTDFTLRISRVEAEDVGVYYCAQNLELPRTFGGGTKLEMKR
B8: ING-1 heavy chain Y105E (Fab, V domains shown)
VH: QIQLVQSGPELKKPGETVKISCKASGYTFTKYGMNWVKQAPGKGLKWMGWINTYTEEPTYGDDFKGRFAFSLETSASTANLQINNLKSEDTATYFCARFGSAVDEWGQGTSVTVSS
VL: DIVMTQAAFSNPVTLGTSGSISCRSSKSLLHSNGITYLYWYLQKPGQSPQLLIYQMSNLASGVPDRFSSSGSGTDFTLRISRVEAEDVGVYYCAQNLELPRTFGGGTKLEMKR
B9: ING-1 heavy chain Y105K (Fab, V domains shown)
VH: QIQLVQSGPELKKPGETVKISCKASGYTFTKYGMNWVKQAPGKGLKWMGWINTYTEEPTYGDDFKGRFAFSLETSASTANLQINNLKSEDTATYFCARFGSAVDKWGQGTSVTVSS
VL: DIVMTQAAFSNPVTLGTSGSISCRSSKSLLHSNGITYLYWYLQKPGQSPQLLIYQMSNLASGVPDRFSSSGSGTDFTLRISRVEAEDVGVYYCAQNLELPRTFGGGTKLEMKR
B10: ING-1 heavy chain W50S (Fab, V domains shown)
VH: QIQLVQSGPELKKPGETVKISCKASGYTFTKYGMNWVKQAPGKGLKWMGSINTYTEEPTYGDDFKGRFAFSLETSASTANLQINNLKSEDTATYFCARFGSAVDYWGQGTSVTVSS
VL: DIVMTQAAFSNPVTLGTSGSISCRSSKSLLHSNGITYLYWYLQKPGQSPQLLIYQMSNLASGVPDRFSSSGSGTDFTLRISRVEAEDVGVYYCAQNLELPRTFGGGTKLEMKR
B11: ING-1 heavy chain Y32S (Fab, V domains shown)
VH: QIQLVQSGPELKKPGETVKISCKASGYTFTKSGMNWVKQAPGKGLKWMGWINTYTEEPTYGDDFKGRFAFSLETSASTANLQINNLKSEDTATYFCARFGSAVDYWGQGTSVTVSS
VL: DIVMTQAAFSNPVTLGTSGSISCRSSKSLLHSNGITYLYWYLQKPGQSPQLLIYQMSNLASGVPDRFSSSGSGTDFTLRISRVEAEDVGVYYCAQNLELPRTFGGGTKLEMKR
B12: ING-1 heavy chain Y54H (Fab, V domains shown)
VH: QIQLVQSGPELKKPGETVKISCKASGYTFTKYGMNWVKQAPGKGLKWMGWINTHTEEPTYGDDFKGRFAFSLETSASTANLQINNLKSEDTATYFCARFGSAVDYWGQGTSVTVSS
VL: DIVMTQAAFSNPVTLGTSGSISCRSSKSLLHSNGITYLYWYLQKPGQSPQLLIYQMSNLASGVPDRFSSSGSGTDFTLRISRVEAEDVGVYYCAQNLELPRTFGGGTKLEMKR
B13: ING-1 heavy chain Y54D (Fab, V domains shown)
VH: QIQLVQSGPELKKPGETVKISCKASGYTFTKYGMNWVKQAPGKGLKWMGWINTDTEEPTYGDDFKGRFAFSLETSASTANLQINNLKSEDTATYFCARFGSAVDYWGQGTSVTVSS
VL: DIVMTQAAFSNPVTLGTSGSISCRSSKSLLHSNGITYLYWYLQKPGQSPQLLIYQMSNLASGVPDRFSSSGSGTDFTLRISRVEAEDVGVYYCAQNLELPRTFGGGTKLEMKR
B14: ING-1 heavy chain Y54E (Fab, V domains shown)
VH: QIQLVQSGPELKKPGETVKISCKASGYTFTKYGMNWVKQAPGKGLKWMGWINTETEEPTYGDDFKGRFAFSLETSASTANLQINNLKSEDTATYFCARFGSAVDYWGQGTSVTVSS
VL: DIVMTQAAFSNPVTLGTSGSISCRSSKSLLHSNGITYLYWYLQKPGQSPQLLIYQMSNLASGVPDRFSSSGSGTDFTLRISRVEAEDVGVYYCAQNLELPRTFGGGTKLEMKR
B15: ING-1 heavy chain W50Q (Fab, V domains shown)
VH: QIQLVQSGPELKKPGETVKISCKASGYTFTKYGMNWVKQAPGKGLKWMGQINTYTEEPTYGDDFKGRFAFSLETSASTANLQINNLKSEDTATYFCARFGSAVDYWGQGTSVTVSS
VL: DIVMTQAAFSNPVTLGTSGSISCRSSKSLLHSNGITYLYWYLQKPGQSPQLLIYQMSNLASGVPDRFSSSGSGTDFTLRISRVEAEDVGVYYCAQNLELPRTFGGGTKLEMKR
B16: ING-1 heavy chain W50K (Fab, V domains shown)
VH: QIQLVQSGPELKKPGETVKISCKASGYTFTKYGMNWVKQAPGKGLKWMGKINTYTEEPTYGDDFKGRFAFSLETSASTANLQINNLKSEDTATYFCARFGSAVDYWGQGTSVTVSS
VL: DIVMTQAAFSNPVTLGTSGSISCRSSKSLLHSNGITYLYWYLQKPGQSPQLLIYQMSNLASGVPDRFSSSGSGTDFTLRISRVEAEDVGVYYCAQNLELPRTFGGGTKLEMKR
B17: ING-1 heavy chain Y32K (Fab, V domains shown)
VH: QIQLVQSGPELKKPGETVKISCKASGYTFTKKGMNWVKQAPGKGLKWMGWINTYTEEPTYGDDFKGRFAFSLETSASTANLQINNLKSEDTATYFCARFGSAVDYWGQGTSVTVSS
VL: DIVMTQAAFSNPVTLGTSGSISCRSSKSLLHSNGITYLYWYLQKPGQSPQLLIYQMSNLASGVPDRFSSSGSGTDFTLRISRVEAEDVGVYYCAQNLELPRTFGGGTKLEMKR
B18: ING-1 heavy chain Y32Q (Fab, V domains shown)
VH: QIQLVQSGPELKKPGETVKISCKASGYTFTKQGMNWVKQAPGKGLKWMGWINTYTEEPTYGDDFKGRFAFSLETSASTANLQINNLKSEDTATYFCARFGSAVDYWGQGTSVTVSS
VL: DIVMTQAAFSNPVTLGTSGSISCRSSKSLLHSNGITYLYWYLQKPGQSPQLLIYQMSNLASGVPDRFSSSGSGTDFTLRISRVEAEDVGVYYCAQNLELPRTFGGGTKLEMKR
B19: ING-1 light chain E98N (Fab, V domains shown)
VH: QIQLVQSGPELKKPGETVKISCKASGYTFTKYGMNWVKQAPGKGLKWMGWINTYTEEPTYGDDFKGRFAFSLETSASTANLQINNLKSEDTATYFCARFGSAVDYWGQGTSVTVSS
VL: DIVMTQAAFSNPVTLGTSGSISCRSSKSLLHSNGITYLYWYLQKPGQSPQLLIYQMSNLASGVPDRFSSSGSGTDFTLRISRVEAEDVGVYYCAQNLNLPRTFGGGTKLEMKR
notes: Fab, periplasmic extract
B20: ING-1 light chain E98S (Fab, V domains shown)
VH: QIQLVQSGPELKKPGETVKISCKASGYTFTKYGMNWVKQAPGKGLKWMGWINTYTEEPTYGDDFKGRFAFSLETSASTANLQINNLKSEDTATYFCARFGSAVDYWGQGTSVTVSS
VL: DIVMTQAAFSNPVTLGTSGSISCRSSKSLLHSNGITYLYWYLQKPGQSPQLLIYQMSNLASGVPDRFSSSGSGTDFTLRISRVEAEDVGVYYCAQNLSLPRTFGGGTKLEMKR
notes: Fab, periplasmic extract

Molecular target: T1, Ep-CAM
Test: Biacore, Fab periplasmic extract

Q: Which “fold difference in affinity vs original” value does the source give for B1 here?
A: 0.6 fold

Q: With B2 as the binder, how does the “fold difference in affinity vs original” value read?
A: 0.04 fold

Q: How did the “fold difference in affinity vs original” value turn out when B3 was run?
A: 0.09 fold

Q: With B4 as the binder, how does the “fold difference in affinity vs original” value read?
A: 0.03 fold

Q: Which “fold difference in affinity vs original” value does the source give for B5 here?
A: 0.1 fold

Q: Does B6 bind?
A: no binding

Q: Which “fold difference in affinity vs original” value does the source give for B7 here?
A: 0.08 fold

Q: Does B8 bind?
A: no binding

Q: Does B9 bind?
A: no binding

Q: With B10 as the binder, how does the “fold difference in affinity vs original” value read?
A: 0.02 fold

Q: With B11 as the binder, how does the “fold difference in affinity vs original” value read?
A: 0.01 fold

Q: B12 was tested. Which “fold difference in affinity vs original” value did it give?
A: 1 fold

Q: How did the “fold difference in affinity vs original” value turn out when B13 was run?
A: 0.05 fold

Q: B14 was tested. Which “fold difference in affinity vs original” value did it give?
A: 0.07 fold

Q: How did the “fold difference in affinity vs original” value turn out when B15 was run?
A: 0.01 fold

Q: For B16, which “fold difference in affinity vs original” value is on record?
A: 0.04 fold

Q: B17 was tested. Which “fold difference in affinity vs original” value did it give?
A: 0.08 fold

Q: Which “fold difference in affinity vs original” value does the source give for B18 here?
A: 0.1 fold

Molecular target: T2, Ep-CAM
Test: Biacore, Fab periplasmic extract

Q: Does B19 bind?
A: no binding

Q: Does B20 bind?
A: no binding
